Assay results from patent US20110263454A1, “Methods of Identifying Functional Characteristics of Promoters, Transcription Modifying Proteins and Transcription Modulating Agents” (Salk Institute for Biological Studies, priority 2008, published 2011).

B1: HNF4g: Hepatocyte Nuclear Factor γ (NR2A2), cDNA driver (protein, UniProt Q14541 1-408, looked up)
Hepatocyte nuclear factor …: MNTTDNGVNCLCAICGDRATGKHYGASSCDGCKGFFRRSIRKSHVYSCRFSRQCVVDKDKRNQCRYCRLRKCFRAGMKKEAVQNERDRISTRRSTFDGSNIPSINTLAQAEVRSRQISVSSPGSSTDINVKKIASIGDVCESMKQQLLVLVEWAKYIPAFCELPLDDQVALLRAHAGEHLLLGATKRSMMYKDILLLGNNYVIHRNSCEVEISRVANRVLDELVRPFQEIQIDDNEYACLKAIVFFDPDAKGLSDPVKIKNMRFQVQIGLEDYINDRQYDSRGRFGELLLLLPTLQSITWQMIEQIQFVKLFGMVKIDNLLQEMLLGGASNDGSHLHHPMHPHLSQDPLTGQTILLGPMSTLVHADQISTPETPLPSPPQGSGQEQYKIAANQASVISHQHLSKQKQL
B2: RXRg: Retinoic X Receptor γ (NR2B3), cDNA driver (protein, UniProt P48443 1-463, looked up)
Retinoic acid receptor …: MYGNYSHFMKFPAGYGGSPGHTGSTSMSPSAALSTGKPMDSHPSYTDTPVSAPRTLSAVGTPLNALGSPYRVITSAMGPPSGALAAPPGINLVAPPSSQLNVVNSVSSSEDIKPLPGLPGIGNMNYPSTSPGSLVKHICAICGDRSSGKHYGVYSCEGCKGFFKRTIRKDLIYTCRDNKDCLIDKRQRNRCQYCRYQKCLVMGMKREAVQEERQRSRERAESEAECATSGHEDMPVERILEAELAVEPKTESYGDMNMENSTNDPVTNICHAADKQLFTLVEWAKRIPHFSDLTLEDQVILLRAGWNELLIASFSHRSVSVQDGILLATGLHVHRSSAHSAGVGSIFDRVLTELVSKMKDMQMDKSELGCLRAIVLFNPDAKGLSNPSEVETLREKVYATLEAYTKQKYPEQPGRFAKLLLRLPALRSIGLKCLEHLFFFKLIGDTPIDTFLMEMLETPLQIT
B3: TR2: Testicular Orphan Nuclear Receptor 2 (NR2C1), cDNA driver (protein, UniProt P13056 1-603, looked up)
Nuclear receptor subfamily 2 …: MATIEEIAHQIIEQQMGEIVTEQQTGQKIQIVTALDHNTQGKQFILTNHDGSTPSKVILARQDSTPGKVFLTTPDAAGVNQLFFTTPDLSAQHLQLLTDNSPDQGPNKVFDLCVVCGDKASGRHYGAVTCEGCKGFFKRSIRKNLVYSCRGSKDCIINKHHRNRCQYCRLQRCIAFGMKQDSVQCERKPIEVSREKSSNCAASTEKIYIRKDLRSPLTATPTFVTDSESTRSTGLLDSGMFMNIHPSGVKTESAVLMTSDKAESCQGDLSTLANVVTSLANLGKTKDLSQNSNEMSMIESLSNDDTSLCEFQEMQTNGDVSRAFDTLAKALNPGESTACQSSVAGMEGSVHLITGDSSINYTEKEGPLLSDSHVAFRLTMPSPMPEYLNVHYIGESASRLLFLSMHWALSIPSFQALGQENSISLVKAYWNELFTLGLAQCWQVMNVATILATFVNCLHNSLQQDKMSTERRKLLMEHIFKLQEFCNSMVKLCIDGYEYAYLKAIVLFSPDHPSLENMEQIEKFQEKAYVEFQDYITKTYPDDTYRLSRLLLRLPALRLMNATITEELFFKGLIGNIRIDSVIPHILKMEPADYNSQIIGHSI
B4: RXRb: Retinoic X Receptor β (NR2B2), cDNA driver (protein, UniProt P28702 1-533, looked up)
Retinoic acid receptor …: MSWAARPPFLPQRHAAGQCGPVGVRKEMHCGVASRWRRRRPWLDPAAAAAAAVAGGEQQTPEPEPGEAGRDGMGDSGRDSRSPDSSSPNPLPQGVPPPSPPGPPLPPSTAPSLGGSGAPPPPPMPPPPLGSPFPVISSSMGSPGLPPPAPPGFSGPVSSPQINSTVSLPGGGSGPPEDVKPPVLGVRGLHCPPPPGGPGAGKRLCAICGDRSSGKHYGVYSCEGCKGFFKRTIRKDLTYSCRDNKDCTVDKRQRNRCQYCRYQKCLATGMKREAVQEERQRGKDKDGDGEGAGGAPEEMPVDRILEAELAVEQKSDQGVEGPGGTGGSGSSPNDPVTNICQAADKQLFTLVEWAKRIPHFSSLPLDDQVILLRAGWNELLIASFSHRSIDVRDGILLATGLHVHRNSAHSAGVGAIFDRVLTELVSKMRDMRMDKTELGCLRAIILFNPDAKGLSNPSEVEVLREKVYASLETYCKQKYPEQQGRFAKLLLRLPALRSIGLKCLEHLFFFKLIGDTPIDTFLMEMLEAPHQLA
B5: RORb: RAR-related Orphan Receptor β (NR1F2), cDNA driver (protein, UniProt Q92753 1-470, looked up)
Nuclear receptor ROR-beta: MCENQLKTKADATAQIEVIPCKICGDKSSGIHYGVITCEGCKGFFRRSQQNNASYSCPRQRNCLIDRTNRNRCQHCRLQKCLALGMSRDAVKFGRMSKKQRDSLYAEVQKHQQRLQEQRQQQSGEAEALARVYSSSISNGLSNLNNETSGTYANGHVIDLPKSEGYYNVDSGQPSPDQSGLDMTGIKQIKQEPIYDLTSVPNLFTYSSFNNGQLAPGITMTEIDRIAQNIIKSHLETCQYTMEELHQLAWQTHTYEEIKAYQSKSREALWQQCAIQITHAIQYVVEFAKRITGFMELCQNDQILLLKSGCLEVVLVRMCRAFNPLNNTVLFEGKYGGMQMFKALGSDDLVNEAFDFAKNLCSLQLTEEEIALFSSAVLISPDRAWLIEPRKVQKLQEKIYFALQHVIQKNHLDDETLAKLIAKIPTITAVCNLHGEKLQVFKQSHPEIVNTLFPPLYKELFNPDCATGCK

System: mABCA1 promoter
Test: NHR-promoter luciferase screen, mABCA1 promoter
Format: cell-based, mouse
Conditions: ABCA1 promoter; hormone receptor with or without its ligand
Summary of the method: (§1)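 CV-1 cells were co-transfected with 50 ng NHR (homodimer or NHR/RXR heterodimer), 100 ng promoter-luciferase construct and 50 ng LacZ. Luciferase was normalized to LacZ and to a no-NHR/no-ligand control.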

Molecule	Luc. act., normalized to lacZ
B1	11.3
B2	18.3
B3	31.2
B4	11.1
B5	26.4

Same assay, conditions: ABCA1 promoter; hormone receptor with or without its ligand; relative to control

Molecule	Normalized Luc. act., normalized to control
B1	2.0
B2	3.3
B3	5.6
B4	2.0
B5	4.7

Same assay, conditions: transcription factor +/- ligand; control = 1.00

Molecule	mABCA1 promoter reporter activity
B1	2.01
B2	3.26
B3	5.55
B4	1.97
B5	4.69

System: Bmal1 promoter
Test: NHR-promoter luciferase screen, Bmal1 promoter
Format: cell-based, mouse
Conditions: Bmal1 promoter; HR component without or with ligand
Summary of the method: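 CV-1 cells co-transfected with 50 ng NHR (V5H6-tagged, pcDNA3.1; homodimer or RXR heterodimer), 100 ng Bmal1 promoter-luciferase and 50 ng LacZ. Luciferase was normalized to LacZ and to a no-NHR/ligand control.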

Molecule	Luc. act., normalized to lacZ	Normalized Luc. act., normalized to control
B1	11.5	0.7
B2	12.7	0.8
B3	10.8	0.7
B4	12.5	0.8
B5	16.5	1.1

Same assay, conditions: transcription factor +/- ligand; control = 1.00

Molecule	mBmal1 promoter reporter activity
B1	0.73
B2	0.81
B3	0.69
B4	0.80
B5	1.06

System: hG6PD promoter
Test: NHR-promoter luciferase screen, hG6PD promoter
Format: cell-based, human
Conditions: G6PD promoter reporter; co-transfected HR, without or with its ligand
Summary of the method: as §1

Molecule	Luc. act., normalized to lacZ
B1	42.1
B2	43.7
B3	45.5
B4	23.1
B5	51.1

Same assay, conditions: G6PD promoter reporter; co-transfected HR, without or with its ligand; relative to control

Molecule	Normalized Luc. act., normalized to control
B1	1.1
B2	1.2
B3	1.2
B4	0.6
B5	1.4

Same assay, conditions: hG6PD promoter-luciferase, CV-1 cells, NHR +/- ligand, control = 1.00

Molecule	luciferase activity normalized to lacZ activity and to a control, hG6PD
B1	1.13
B2	1.17
B3	1.22
B4	0.62
B5	1.37

System: mNPY promoter
Test: NHR-promoter luciferase screen, mNPY promoter
Format: cell-based, mouse
Conditions: Table 6d; luciferase activity relative to control (control = 1.00)
Summary of the method: as §1

Molecule	Results of assays of transcription factor (+/- ligand) with mNPY
B1	0.96
B2	0.97
B3	1.27
B4	0.80
B5	1.12

Same assay, conditions: mNPY promoter; HR component with or without ligand

Molecule	Luc. act., normalized to lacZ
B1	80.7
B2	81.2
B3	106.6
B4	66.9
B5	94.2

Same assay, conditions: mNPY promoter; HR component with or without ligand; relative to control

Molecule	Normalized Luc. act., normalized to control
B1	1.0
B2	1.0
B3	1.3
B4	0.8
B5	1.1

System: hPPARg2 promoter
Test: NHR-promoter luciferase screen, hPPARg2 promoter
Format: cell-based, human
Conditions: PPARG2 promoter; hormone receptor with or without its ligand
Summary of the method: as §1

Molecule	Luc. act., normalized to lacZ
B1	1.5
B2	1.5
B3	1.9
B4	1.5
B5	1.8

Same assay, conditions: PPARG2 promoter; hormone receptor with or without its ligand; relative to control

Molecule	Normalized Luc. act., normalized to control
B1	0.8
B2	0.7
B3	1.0
B4	0.8
B5	0.9

Same assay, conditions: Table 6d; luciferase activity relative to control (control = 1.00)

Molecule	Results of assays of transcription factor (+/- ligand) with hPPARg2
B1	0.76
B2	0.74
B3	0.95
B4	0.75
B5	0.89

System: hTNFa promoter
Test: NHR-promoter luciferase screen, hTNFa promoter
Format: cell-based, human
Conditions: TNFa promoter; HR component without or with ligand
Summary of the method: as §1

Molecule	Luc. act., normalized to lacZ	Normalized Luc. act., normalized to control
B1	859.3	0.9
B2	1025.0	1.0
B3	1038.2	1.1
B4	1036.3	1.1
B5	1029.5	1.0

Same assay, conditions: transcription factor +/- ligand; control = 1.00

Molecule	hTNFa promoter reporter activity
B1	0.87
B2	1.04
B3	1.06
B4	1.05
B5	1.05
